The record followed here is patent publication EP0920630B1.

pKd: −log10 of the molar value.

For the experiment, the target named is PrPBPs (prion protein binding proteins) on the surface of G8 cells (mouse muscle cell line). Briefly: Scatchard analysis, bound AP activity on G8 cells.

As usually defined, the pKd is the negative decadic logarithm of the Kd, by convention in mol/L. A lower pKd goes with a large Kd. The substance “PrP-AP fusion protein (murine PrP fused to secreted human placental heat-stable alkaline phosphatase) (from UniProt P04925 23-229; P05187 23-511)” gave a pKd of 8.83 and a PrP-AP binding sites (Bmax) (binding sites) of 100000.
